The results in this text go back to patent publication US20250171562A1 (ALK ABELL, published 2025).

B1: CIgG4B1A1(EAAAK) (Fc fusion)
chain 1: GPPCPPCPAPEFLGGPSVFLFPPKPKDTLMISRTPEVTCVVVDVSQEDPEVQFNWYVDGVEVHNAKTKPREEQFNSTYRVVSVLTVLHQDWLNGKEYKCKVSNKGLPSSIEKTISKAKGQPREPQVYTLPPCQEEMTKNQVSLWCLVKGFYPSDIAVEWESNGQPENNYKTTPPVLDSDGSFFLYSRLTVDKSRWQEGNVFSCSVMHEALHNHYTQKSLSLSLGKEAAAKQVQLQESGGGLVQTGGSLRLSCAVHGRTFSNTGMGWFRQAPGNERQFVAIISPSGTSTYYADSVKGRFTISRDPAKNTVYLQMNSLKMDDTAVYYCAASYGSNWSTLRHQRRNEYDAWGQGTQVAVS
chain 2: GPPCPPCPAPEFLGGPSVFLFPPKPKDTLMISRTPEVTCVVVDVSQEDPEVQFNWYVDGVEVHNAKTKPREEQFNSTYRVVSVLTVLHQDWLNGKEYKCKVSNKGLPSSIEKTISKAKGQPREPQVCTLPPSQEEMTKNQVSLSCAVKGFYPSDIAVEWESNGQPENNYKTTPPVLDSDGSFFLVSRLTVDKSRWQEGNVFSCSVMHEALHNHYTQKSLSLSLGKEAAAKEVQLLESGGGLVQPGGSLRLSCAASGFTFGNYDMAWVRQAPGKRPEWVSSIDTGGDITHYADSVKGRFTISRDNAKNTLYLQMNSLRPEDTAVYWCATDEEYALGPNEFDYYGQGTLVTVSS
B2: A1B1(G4S)4 (bispecific antibody)
chain: EVQLLESGGGLVQPGGSLRLSCAASGFTFGNYDMAWVRQAPGKRPEWVSSIDTGGDITHYADSVKGRFTISRDNAKNTLYLQMNSLRPEDTAVYWCATDEEYALGPNEFDYYGQGTLVTVSGGGGSGGGGSGGGGSGGGGSQVQLQESGGGLVQTGGSLRLSCAVHGRTFSNTGMGWFRQAPGNERQFVAIISPSGTSTYYADSVKGRFTISRDPAKNTVYLQMNSLKMDDTAVYYCAASYGSNWSTLRHQRRNEYDAWGQGTQVAVS
B3: A1B3(G4S)4 (bispecific antibody)
chain: EVQLLESGGGLVQPGGSLRLSCAASGFTFGNYDMAWVRQAPGKRPEWVSSIDTGGDITHYADSVKGRFTISRDNAKNTLYLQMNSLRPEDTAVYWCATDEEYALGPNEFDYYGQGTLVTVSGGGGSGGGGSGGGGSGGGGSDVQLQESGGGLVQAGGSLRLSCAASGFIFRLAGMSWVRQAPGKGFEWVSGITMDGSTTNYADSVKGRFTISRDNSKNRLYLQMNSLKPEDTAVYYCARGAKGGYNDPRGQGTQVTVS
B4: CIgG4B1A1(EAAAK)2 (Fc fusion)
chain 1: GPPCPPCPAPEFLGGPSVFLFPPKPKDTLMISRTPEVTCVVVDVSQEDPEVQFNWYVDGVEVHNAKTKPREEQFNSTYRVVSVLTVLHQDWLNGKEYKCKVSNKGLPSSIEKTISKAKGQPREPQVYTLPPCQEEMTKNQVSLWCLVKGFYPSDIAVEWESNGQPENNYKTTPPVLDSDGSFFLYSRLTVDKSRWQEGNVFSCSVMHEALHNHYTQKSLSLSLGKEAAAKEAAAKQVQLQESGGGLVQTGGSLRLSCAVHGRTFSNTGMGWFRQAPGNERQFVAIISPSGTSTYYADSVKGRFTISRDPAKNTVYLQMNSLKMDDTAVYYCAASYGSNWSTLRHQRRNEYDAWGQGTQVAVS
chain 2: GPPCPPCPAPEFLGGPSVFLFPPKPKDTLMISRTPEVTCVVVDVSQEDPEVQFNWYVDGVEVHNAKTKPREEQFNSTYRVVSVLTVLHQDWLNGKEYKCKVSNKGLPSSIEKTISKAKGQPREPQVCTLPPSQEEMTKNQVSLSCAVKGFYPSDIAVEWESNGQPENNYKTTPPVLDSDGSFFLVSRLTVDKSRWQEGNVFSCSVMHEALHNHYTQKSLSLSLGKEAAAKEAAAKEVQLLESGGGLVQPGGSLRLSCAASGFTFGNYDMAWVRQAPGKRPEWVSSIDTGGDITHYADSVKGRFTISRDNAKNTLYLQMNSLRPEDTAVYWCATDEEYALGPNEFDYYGQGTLVTVSS
B5: B3A1(G4S)4 (bispecific antibody)
chain: DVQLQESGGGLVQAGGSLRLSCAASGFIFRLAGMSWVRQAPGKGFEWVSGITMDGSTTNYADSVKGRFTISRDNSKNRLYLQMNSLKPEDTAVYYCARGAKGGYNDPRGQGTQVTVSGGGGSGGGGSGGGGSGGGGSEVQLLESGGGLVQPGGSLRLSCAASGFTFGNYDMAWVRQAPGKRPEWVSSIDTGGDITHYADSVKGRFTISRDNAKNTLYLQMNSLRPEDTAVYWCATDEEYALGPNEFDYYGQGTLVTVS
B6: B2A1(G4S)4 (bispecific antibody)
chain: QVQLVESGGGLVQAGGSLRLSCAVFGSTFSNNVADWYRQAPGKQRELVARISASGATREYGDSVKGRFTISRDDAKNTMYLQMNNLKPEDTAVYRCHKIEWEDLSRKDYWGQGTQVTVSGGGGSGGGGSGGGGSGGGGSEVQLLESGGGLVQPGGSLRLSCAASGFTFGNYDMAWVRQAPGKRPEWVSSIDTGGDITHYADSVKGRFTISRDNAKNTLYLQMNSLRPEDTAVYWCATDEEYALGPNEFDYYGQGTLVTVS
B7: A1B2(G4S)4 (bispecific antibody)
chain: EVQLLESGGGLVQPGGSLRLSCAASGFTFGNYDMAWVRQAPGKRPEWVSSIDTGGDITHYADSVKGRFTISRDNAKNTLYLQMNSLRPEDTAVYWCATDEEYALGPNEFDYYGQGTLVTVSGGGGSGGGGSGGGGSGGGGSQVQLVESGGGLVQAGGSLRLSCAVFGSTFSNNVADWYRQAPGKQRELVARISASGATREYGDSVKGRFTISRDDAKNTMYLQMNNLKPEDTAVYRCHKIEWEDLSRKDYWGQGTQVTVS
B8: B1A1(G4S)4 (bispecific antibody)
chain: QVQLQESGGGLVQTGGSLRLSCAVHGRTFSNTGMGWFRQAPGNERQFVAIISPSGTSTYYADSVKGRFTISRDPAKNTVYLQMNSLKMDDTAVYYCAASYGSNWSTLRHQRRNEYDAWGQGTQVAVSGGGGSGGGGSGGGGSGGGGSEVQLLESGGGLVQPGGSLRLSCAASGFTFGNYDMAWVRQAPGKRPEWVSSIDTGGDITHYADSVKGRFTISRDNAKNTLYLQMNSLRPEDTAVYWCATDEEYALGPNEFDYYGQGTLVTVS
notes: two sdAbs linked by a peptide linker
B9: CIgG4B1A1(G2SG2S) (Fc fusion)
chain 1: GPPCPPCPAPEFLGGPSVFLFPPKPKDTLMISRTPEVTCVVVDVSQEDPEVQFNWYVDGVEVHNAKTKPREEQFNSTYRVVSVLTVLHQDWLNGKEYKCKVSNKGLPSSIEKTISKAKGQPREPQVYTLPPCQEEMTKNQVSLWCLVKGFYPSDIAVEWESNGQPENNYKTTPPVLDSDGSFFLYSRLTVDKSRWQEGNVFSCSVMHEALHNHYTQKSLSLSLGKGGSGGSQVQLQESGGGLVQTGGSLRLSCAVHGRTFSNTGMGWFRQAPGNERQFVAIISPSGTSTYYADSVKGRFTISRDPAKNTVYLQMNSLKMDDTAVYYCAASYGSNWSTLRHQRRNEYDAWGQGTQVAVS
chain 2: GPPCPPCPAPEFLGGPSVFLFPPKPKDTLMISRTPEVTCVVVDVSQEDPEVQFNWYVDGVEVHNAKTKPREEQFNSTYRVVSVLTVLHQDWLNGKEYKCKVSNKGLPSSIEKTISKAKGQPREPQVCTLPPSQEEMTKNQVSLSCAVKGFYPSDIAVEWESNGQPENNYKTTPPVLDSDGSFFLVSRLTVDKSRWQEGNVFSCSVMHEALHNHYTQKSLSLSLGKGGSGGSEVQLLESGGGLVQPGGSLRLSCAASGFTFGNYDMAWVRQAPGKRPEWVSSIDTGGDITHYADSVKGRFTISRDNAKNTLYLQMNSLRPEDTAVYWCATDEEYALGPNEFDYYGQGTLVTVSS

In the assay the target is T1, recombinant human IgE (human, UniProt P01854-1 1-428).
T1 construct: made in-house (ALK); preloaded on immobilised FcεRIα in the displacement ELISA
T1 sequence (P01854 other isoform, or with tags, fused parts or gaps): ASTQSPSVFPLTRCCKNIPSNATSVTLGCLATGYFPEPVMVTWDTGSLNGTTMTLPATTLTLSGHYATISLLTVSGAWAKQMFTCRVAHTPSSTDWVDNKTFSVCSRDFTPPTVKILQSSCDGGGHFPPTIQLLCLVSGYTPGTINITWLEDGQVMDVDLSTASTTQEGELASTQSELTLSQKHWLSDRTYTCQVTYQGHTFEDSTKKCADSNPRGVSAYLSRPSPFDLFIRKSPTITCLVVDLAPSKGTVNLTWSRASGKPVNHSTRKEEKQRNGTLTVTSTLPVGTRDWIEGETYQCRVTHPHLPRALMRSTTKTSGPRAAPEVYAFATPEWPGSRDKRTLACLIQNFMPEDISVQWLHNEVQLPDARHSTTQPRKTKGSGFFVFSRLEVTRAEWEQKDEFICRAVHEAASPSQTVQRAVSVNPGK
Nature of the assay: IgE-FcεRIα displacement ELISA. In short, it runs like this: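 Streptavidin-coated plates carried site-specifically biotinylated recombinant human FcεRIα, loaded with recombinant human IgE at 13 ng/ml. sdAbs in a pM–μM series were added for 1 h, and displaced IgE was washed off. Percent displacement was the signal reduction versus the no-sdAb control, giving EC50 and maximal effect.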
A general note: An ELISA detects its analyte on a solid surface through an enzyme-linked reagent.
With B1, the 50% effective concentration (EC50) – broadly, the midpoint of the concentration-response curve – is 3 nM and the Max effect is > 95%.

With B2, the EC50 stood at 0.9 nM and the Max effect was > 95%.

For B3, the concentration for a half-maximal effect (EC50) was found to be 190 nM and the Max effect stood at 80%.

B4: the EC50 stood at 4.1 nM and the Max effect is > 95%.

Take B5: the half-maximal effective concentration (EC50) worked out at 0.3 nM and the Max effect is > 95%.

Turning to B6, the 50% effective concentration (EC50) is 30 nM and the Max effect is > 95%.

As to B7, the half-maximal effective concentration (EC50) is 1.4 nM and the Max effect is > 95%.

Regarding B8, the EC50 worked out at 1.9 nM and the Max effect was > 95%.

In the case of B9, the EC50 is 3.8 nM and the Max effect is > 95%.
